Literature values in US20230023414A1, “METHODS AND DEVICES FOR TREATING A DISEASE WITH BIOTHERAPEUTICS” (PROGENITY, INC., priority 2018, published 2023).

B1: emicizumab (antibody, chains of the INN, looked up, V domains shown)
VH: QVQLVQSGSELKKPGASVKVSCKASGYTFTDNNMDWVRQAPGQGLEWMGDINTRSGGSIYNEEFQDRVIMTVDKSTDTAYMELSSLRSEDTATYHCARRKSYGYYLDEWGEGTLVTVSS
VL: DIQMTQSPSSLSASVGDRVTITCKASRNIERQLAWYQQKPGQAPELLIYQASRKESGVPDRFSGSRYGTDFTLTISSLQPEDIATYYCQQYSDPPLTFGGGTKVEIK
VH2: QVQLVESGGGLVQPGGSLRLSCAASGFTFSYYDIQWVRQAPGKGLEWVSSISPSGQSTYYRREVKGRFTISRDNSKNTLYLQMNSLRAEDTAVYYCARRTGREYGGGWYFDYWGQGTLVTVSS
VL2: B1 VL
B2: concizumab (antibody, chains of the INN, looked up, V domains shown)
VH: EVQLVESGGGLVKPGGSLRLSCAASGFTFSNYAMSWVRQTPEKRLEWVATISRSGSYSYFPDSVQGRFTISRDNAKNSLYLQMNSLRAEDTAVYYCARLGGYDEGDAMDSWGQGTTVTVSS
VL: DIVMTQTPLSLSVTPGQPASISCKSSQSLLESDGKTYLNWYLQKPGQSPQLLIYLVSILDSGVPDRFSGSGSGTDFTLKISRVEAEDVGVYYCLQATHFPQTFGGGTKVEIK
B3: pegfilgrastim (protein, UniProt P09919 31-207, looked up)
Granulocyte …: TPLGPASSLPQSFLLKCLEQVRKIQGDGAALQEKLVSECATYKLCHPEELVLLGHSLGIPWAPLSSCPSQALQLAGCLSQLHSGLFLYQGLLQALEGISPELGPTLDTLQLDVADFATTIWQQMEELGMAPALQPTQGAMPAFASAFQRRAGGVLVASHLQSFLEVSYRVLRHLAQP
modifications: N-terminal Met, 20 kDa PEG
B4: evolocumab (antibody, chains of the INN, looked up, V domains shown)
VH: EVQLVQSGAEVKKPGASVKVSCKASGYTLTSYGISWVRQAPGQGLEWMGWVSFYNGNTNYAQKLQGRGTMTTDPSTSTAYMELRSLRSDDTAVYYCARGYGMDVWGQGTTVTVSS
VL: ESALTQPASVSGSPGQSITISCTGTSSDVGGYNSVSWYQQHPGKAPKLMIYEVSNRPSGVSNRFSGSKSGNTASLTISGLQAEDEADYYCNSYTSTSMVFGGGTKLTVL

Conditions: SC administration

Row | Molecule | Approved Dosing Info: Bio Avail [%] | Baseline dose: Bioavail. (dose info for non-approved agents from clinical trial information) [%]
1 | B1 | 85 | –
2 | B2 | – | 93.0
3 | B3 | 70 | –
4 | B4 | 82 | –
